The DeepSol protein solubility set

Experiment: soluble on expression in E. coli; label from the status in PepcDB or PDB records

Sequence	soluble on expression in E. coli
MVTSEQLLFLEAWRAVDRAYVDKSFNGQSWFKLRETYLKKEPMDRRAQTYDAIRKLLAVLDDPFTRFLEPSRLAALRRGTAGSVTGVGLEITYDGGSGKDVVVLTPAPGGPAEKAGARAGDVIVTVDGTAVKGLSLYDVSDLLQGEADSQVEVVLHAPGAPSNTRTLQLTRQKVTINPVTFTTCSNVAAAALPPGAAKQQLGYVRLATFNSNTTAAAQQAFTELSKQGVAGLVLDIRNNGGGLFPAGVNVARMLVDRGDLVLIADSQGIRDIYSADGNSIDSATPLVVLVNRGTASASEVLAGALKDSKRGLIAGERTFGKGLIQTVVDLSDGSGVAVTVARYQTPAGVDINKIGVSPDVQLDPEVLPTDLEGVCRVLGSDAAPRLFG	soluble
MGDWMIENKVRDVVKKLKPYVPGKSKEEIARAYGIKPEDIIKLGSNENPWGPSPKIKEKILDEIDKIHQYPEPVNPILMKELSKFLNVDEENIIVGGDGADEIIDTIFRTFVDDGDEVIIPIPTFTQYRVSATIHNAKIKYAKYDKEKDFKLNVESVLNNITDKTKVIFLCTPNNPTGNIIENRDVERVINETDALVVIDHAYIEYAKKEYDWTQKAPEYDNVIVLRTFSKVFGLAGMRVGYGVANKKIIDYMMRVKPIFSLTRLSQVCAITALRDREFFERCVRDGIKSREMLYNGLKKFKDIKVYPSEANYLLVELKTMKAKEFCEELLKRGVIVRDCTSFDGLGDNYVRVSIGTFEEVERFLKILEEIIS	not soluble
MIFTYNKEHVGDVLMVIVKDSKGAKLNCERKGKVTRIFLEKNKETVAWNIFAVSNLLDLNGNGQVFLTDEELAVLNAELAKEGFEEKLENNAAAKFVVGEIVEMVAHPDSDHLNICQVKIAEDKTVQIVAGAPNARVGLKTIVALPGAMMPSGGLIFPGNLRGEKSFGMLCSPRELALPKAPQKRGIIELSTDAVIGQAFDAGKHWKGLEHHHHHH	not soluble
MAHHHHHHMPGSELISGGWFREENDQWPGQAMSLRVEKVLYDAPTKFQHLTIFESDPKGPWGTVMALDGCIQVTDYDEFVYHEVLGHTSLCSHPKPERVLIIGGGDGGVLREVLRHGTVEHCDLVDIDGEVMEQSKQHFPQISRSLADPRATVRVGDGLAFVRQTPDNTYDVVIIDTTDPAGPASKLFGEAFYKDVLRILKPDGICCNQGESIWLDLELIEKMSRFIRETGFASVQYALMHVPTYPCGSIGTLVCSKKAGVDVTKPLRPVEDMPFAKDLKYYDSEMHKASFALPRFARHINNSE	soluble
MGSDKIHHHHHHMKINMPENVQTILNKLHSNGYQAYIYGACIRDYLLGKEPINWDITTNALPNNTVVIFDENEGFTSIPSVEDYGIVTLHFKGESCQVNTFRTGEARRFADDISEDLLHKDFTMNSIAYNEQAGIVDPYNGVGDIEKRLIRCAQNPYEQMQEDSARILRAVRFESQLGFKIEAELLQAMKDLKDTVPASGSRVRNEFIQLLLSEQPSRSIRRLLELGLLERLIPELMPAIGFDTHSSYHDKDVFEHSLVVLDNTEPNLTLRLAALLHDIDKPNCLTIDEDGEGHCYGHASGGSEMAQAILGRLNFDRKTIQAVSSLIKEHMNDFGNISDLSIKRLIRRVGPDNIDRLFELQLADIKGSALSSRDPERITKIRNKCFEVLSRREPLTVHDLDISGYDLLSLGYPPGKKIGETMDYLLDQVIDNPSLNQRDTLIALLKNRK	not soluble
MGSDKIHHHHHHMKFDYEKEPSRDILCIDCKSFYASVECAERGLDPLKTMLVVMSNAENAGGLVLSASPMAKKVLGVSNVTRKNQVPAHPDLYVVPPRMNLYMKKNQEINNLYKKFVADEDHSVFSVDESFLDVTASLSYFHCETAYKMARIIQRVVYNHVGIYVTVGIGDNPLLAKLALDNGAKHSPDFIAEWRYDRVPDTVWQLPSLTDFCGIGRRMAKRLNRLGIDSVYELAQANPHLLQETFGMMGLQLYAHSWGIDRTFLGKKAPHKAEKSFGNSQILPRDYARRDQIELVLKELTEQVAARLRKAHCQTECITVYVGYSKGQIDREGRTGWRKQQTIPATNNTKVLITYVLALFREHYLAGTDVRQLGLSYGKLVWNESLQLDLFSEPEEQISEMELNYLIDKIRQKFGFQALIHTSSLLEGATAIHRSGLVGGHAGGNVGLGG	not soluble
MMKILPHVTNETAPLRTVVLGLPDSTGGAPALADTYDAKSYESVLRGTYPSDEDIKIEMDAVLDVLVRHGIEVLRPEPIANYNQIFARDVAFAIDDKLFVSNLIADRARESEAFSPIWDCVGESHLVRLSEDIHAEGGDILLYDDILFIGTYLQKDYPSFKTARTNARAVDFFREFFPHKTIIPIELIKHDTDPMRSVLHLDCAFQPVGRSRAIVYRQGFLHSESFGLITEIFGGRDNLFEITPEEAYMMNTNIFSISPDTVISEQNFVRLNNHLREAWGMTVEEVPYAEISKQGGLLRCSTMPLVRE	not soluble
MKKLIVASLSLTFMLGGCASMNKEGVGTITGGVVGGLLGSQFGGGSGKVAAAGAGALLGAYLGGQIGKTMDKVDRLEMQRALETAPTGKAVAWSNPDTGYRYTVQPTRTYYNAQQPCREYITKAMIGGKTQQIYGKACRQADGSWRVVNLEHHHHHH	not soluble
AERGELDLTGAKQNTGVWLVKVPKYLSQQWAKASGRGEVGKLRIAKTQGRTEVSFTLNEDLANIHDIGGKPASVSAPREHPFVLQSVGGQTLTVFTESSSDKLSLEGIVVQRAECRPA	soluble
NVYDLANELERAVRALPEYQAVLTAKSAIESDADAQVLWQDFLATQSKVQEMMQSGQMPSQEEQDEMSKLGEKIESNDLLKVYFDQQQRLSVYMSDIEKIVFAPMQDL	soluble
MEIPPTNYPASRAALVAQNYINYQQGTPHRVFEVQKVKQASMEDIPGRGHKYRLKFAVEEIIQKQVKVNCTAEVLYPSTGQETAPEVNFTFEGETGKNPDEEDNTFYQRLKSMKEPLEAQNIPDNFGNVSPEMTLVLHLAWVACGYIIWQNSTEDTWYKMVKIQTVKQVQRNDDFIELDYTILLHNIASQEIIPWQMQVLWHPQYGTKVKHNSRLPKEVQLE	soluble
QLTPFQQEVSRGLKKSVCHKENMLIHAVTGAGKTEMIYETLASILNQGGAVALASPRIDVCIELYKRLSRDFSCPISLLYGESEAYERSPLVIATTHQLLKFYRAFDLLIIDEVDAFPFVDNKMLYYAVDHCLKSDGVKVFLTATS	not soluble
STGVPATDLQQSIMKNVQPIELYFDNELVTDCSALGVYDNSYLVPLHLFEFDFDTIVLGGRHYKKAECEKVEFELEVNGDMVSSDACLLRVPSGPKVRNIVHLFTNEIELKKMTQVTGIMNSPHQARTVFFGSFLTVRKSILTSDGTVMPNVLSYAAQTSRGYCGAAIVAGSPARIIGIHSAGTGSVAFCSLVSKDALERTLPQKQGNVSRLDDDVRVSVPRRSKLVKSLAYPIFKPDYGPAPLSQFDKRLSDGVKLDEVVFAKHTGDKEISAQDQKWLLRAAHVYAQKVFSRIGFDNQALTEKEAICGIPGLDKMEQDTAPGLPYAQQNKRRKDICDFEEGRLKGAAKFQKDRFMAGDYSDLIYQSFLKDEIRPLEKVRAGKTRLIDVPPMPHVVVGRQLLGRFVAKFHEANGFDIGSAIGCDPDVDWTRFGLELERFRYVYACDYSRFDANHAADAMRVVLNYFFSEDHGFDPGVPAFIESLIDSVHAYEEKRYNIYGGLPSGCSCTSILNTILNNVYILAAMMKAYENFEPDDIQVICYGDDCLIASDFEIDFQQLVPVFSSFGQVITTADKTDFFKLTTLSEVTFLKRAFVPDGAFYKPVMDVKTLEAILSFVRPGTQAEKLLSVAQLAGHCEPEQYERLFEPFVGMYFVPTWRDLRLQWLMKLGC	soluble
SMRKFGVVVVGVGRAGSVRMRDLRNPHPSSAFLNLIGFVSRRELGSIDGVQQISLEDALSSQEVEVAYICSESSSHEDYIRQFLNAGKHVLVEYPMTLSLAAAQELWELAEQKGKVLHEEHVELLMEEFAFLKKEVVGKDLLKGSLLFTAGPLEEERFGFPAFSGISRLTWLVSLFGELSLVSATLEERKEDQYMKMTVCLETEKKSPLSWIEEKGPGLKRNRYLSFHFKSGSLENVPNVGVNKNIFLKDQNIFVQKLLGQFSEKELAAEKKRILHCLGLAEEIQKYCCSRK	soluble
MAHHHHHHMWRCGMMPRTRVLRFVWKQSYRDLLPPAAASAYVCGQLRWCDSCDGGGVPAVLESPSDAAGVYSFFSQSTASAVRALRDVTRSAHSLSITDRRLALDGLAVLLRENADLLASADALVTGMCLRDARRSLDAALNFILFCEQRLRTPTAAATTAVIMKDAASVDAEEVLHSFGCGGANICGDSHSVSTLTGKSSVALCVTAANYPLQWGMETVATALLRGSAAVWLPSLDTPLSALWLMHLLHRSNKNVVADSRGAVNIILCRADDVVAAFSRQQESGLSIVGLKNGFRDHQLSRNHQAHGIPSAISHGSISCITRWYHRVMKPSLAVVGSGHHHTETMAVRLDASRVAALICQHAFHGNGRMLYALHIAFVPKQDVLPVLQSVVQYVRNLRLGHSLDPSVNMGPLPGAAHMAAMKETVEAAVCCGDFKLQHVCGGFDVAMPAGFFCLPCAFYATVANVTPAGTEMSIRVLCETTARLRFGLDRLGGGPFVVVCGYDPPQQREALEVVLREKEQYVLHYW	not soluble
MGSDKIHHHHHHMKYALGNILYYWPKEDVEAFYQAAVNSSADIVYLGETVCSKRRLMKVADWFNVAREVANSGKQVVISTLALLQAPSELTELRRYVENGEFLLEANDLGAVNIAAERNLPFVAGHALNCYNAYTLRVLHKQGMVRWCMPVELSRDWLQNLLNQCEELGFRHQFEVEVLSYGHLPLAYSARCFTARSEDRPKDECETCCLSYPQGRKMLSQENQQVFVLNGIQTQSGYCYNLGNELTSMRDLVDIVRLSPNDITTPAMLDTFRANEQGNMPLTLQNQADCNGYWRRVAGLELVQ	not soluble
MSDVLITLSVELEDRPGQLLKVLQPISGMGGNIVGIVHQRGKKTPLNRLPVEISFKMDSEKVQKLIDELKSLGIIIRSFNEVRLTATTSVLLIGHLIHTDISDTISSIDVDGEAECVEMHVSMPEISGPSTAIITISASGKEKLKEAVEKLKEVCRKKEIILIEPVNEELV	not soluble
SLKIDTHAHIFLKKLNTVANARYKPDYDASFKDYKANLDHYDFNKGVLVQPSFLGIDNEFLLQSIEKDENIKAIVVVDENIKFDELKKLKERKACGVRLNLIGKELPNFKSMVWTQFFENLSKLKMQIEIQRDLDNNLVDIVENLIPYGCNIVIDHLARANANLTNLEDLICLKNSRIFFKISGFYRAKIDYANNEQAVKFAKKIYEILKEHFPLSNFVFGSDWPHTNFEANINFSSALVAFNEVVVSKKEQEQILGDNACALFGF	soluble
MAGDCSSHWPVTNPPRGYLSSRRLLEHSTRSIGQTVIHTRDPCDGTGMGVAVIGASMTKFGQRDVWIRELLSQAGEECLTDAGVAPDDVEHLYVSNMASGEFEGQTGIMNLLAHDLGVLPAYSERVDQTSSSGGAGIYEAWQSVASGASEMTLLVGGEKMTHKTTGQATDIIASITHPDEYKHGVTLPSFAGMTARHYLERFDAPRESLARVAVKNHRNGVDNPKAQFQKEITMEKALESPIIADPLRLYDFCPITDGSAALMFTTEERAKEITDEYALVSGIGGATDTHVVHERDDPTIMGGVVESSKQAYEMAGLGPNDLDVAELHDMFTILEFLQLEGIGVADQGTAWEMAMDGVTAKDGELPINTSGGLKSKGHPLGASGVAQGVEIYEQLVGEAGPRQVEADTALACNVGGFGNCVITTIMEAAE	not soluble
MGSDKIHHHHHHMLTPIPQIQHLFATNRRSARWLQLAFLLMALYYAPFSHAACTTPPSNTVLGPYGSSVVGVNGTPQVVASGSGFRCTGSVLSLASTNTITATIQSDSNPSGTTMRMRRGTTTDYVPYSLCMDSGCGTLYNINSTYTWSRTTFLDILGLFNSTDGTMPIYIRTSIGSNVSAGTYTDTVTIKWDYRLCALGILGLCSYDEGSTTSTLNITMTITNDCQITSAPNISFGTAAFPANFAAVNNNLGVRCTLLGAYTVKLVSTHPDDANWRRMTATVGSTPYYLQYQLYRTGNIAWTETNDYSGAGTGITQNIPYTARINASQASKPEGTYKDTVTINVTIN	not soluble
